Measurements taken from patent publication US20250176833A1.

How the values were obtained:
[1] = biological target: Fc receptors on Mv4-11 cells; test: flow cytometry, titration of IRDye680RD-labeled protein on Mv4-11 cells, non-linear fit of normalized MFI
[2] = biological target: Fc receptors on HL-60 cells; test: flow cytometry, titration of IRDye680RD-labeled protein on HL-60 cells, non-linear fit of normalized MFI
[3] = biological target: Fc receptors on monocytes of human peripheral blood; test: flow cytometry on human peripheral blood with immune panel, monocyte gate (CD14 vs Fc-680)
[4] = biological target: Fc receptors on granulocytes of human peripheral blood; test: flow cytometry on human peripheral blood with immune panel, granulocyte gate (CD16 vs Fc-680)

Kd [1] [nM]	Kd [2] [nM]	percent of cells bound [3] [%]	percent of cells bound [4] [%]	Substance
1.7	5			control IgG, labeled with IRDye680RD (antibody)
1.5	2.1			control scFv-Fc, labeled with IRDye680RD (Fc fusion)
0.4	3.6	25	33	human IgG1 Fc domain (hinge, CH2 and CH3; expressed with IL2 signal sequence), labeled with IRDye680RD (from UniProt P0DOX5 218-449)
